No end group written: not given here.
Target: AVPR1a (Homo sapiens, UniProt P37288)
Experiment: 125I-OVTA competition binding, intact CHO cells

Chain of AVPR1a (P37288 whole entry): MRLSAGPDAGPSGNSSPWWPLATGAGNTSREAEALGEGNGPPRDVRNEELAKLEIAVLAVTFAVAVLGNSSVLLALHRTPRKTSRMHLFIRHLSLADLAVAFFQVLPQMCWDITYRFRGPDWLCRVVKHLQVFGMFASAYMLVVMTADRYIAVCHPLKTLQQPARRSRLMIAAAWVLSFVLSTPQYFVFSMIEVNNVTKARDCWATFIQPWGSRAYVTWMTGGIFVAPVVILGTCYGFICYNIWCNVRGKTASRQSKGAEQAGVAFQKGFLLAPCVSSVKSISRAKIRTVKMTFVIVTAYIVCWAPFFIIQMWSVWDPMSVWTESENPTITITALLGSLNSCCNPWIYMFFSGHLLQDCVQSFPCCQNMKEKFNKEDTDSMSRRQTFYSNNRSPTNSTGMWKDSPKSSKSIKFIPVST

Ki: 8.71 nM
B1: Pro8-OXT (peptide)
chain: CYIQNCPPG
modifications: not fully specified; cysteine pairing not given here
